Where a chain is given by its changes, count along the chain named. Names may count otherwise.
T1: SipD (residues 39-343, C244S) (Salmonella typhimurium strain SL1344, UniProt Q56026 39-343, C244S)
T1 sequence: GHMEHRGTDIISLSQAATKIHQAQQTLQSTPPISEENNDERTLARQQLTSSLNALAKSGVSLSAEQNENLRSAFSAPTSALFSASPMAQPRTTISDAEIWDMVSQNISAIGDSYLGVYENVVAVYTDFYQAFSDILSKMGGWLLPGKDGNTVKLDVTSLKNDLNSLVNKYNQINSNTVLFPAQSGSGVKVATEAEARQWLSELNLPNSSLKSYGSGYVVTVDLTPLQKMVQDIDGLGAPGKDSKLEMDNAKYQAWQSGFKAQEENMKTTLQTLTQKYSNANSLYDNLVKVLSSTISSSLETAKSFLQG

B1: SipB^82-312 D207C, MTSL spin-labeled (domain or fragment)
chain: EGQLTLLLGKLMTLLGDVSLSQLESRLAVWQAMIESQKEMGIQVSKEFQTALGEAQEATDLYEASIKKTDTAKSVYDAATKKLTQAQNKLQSLDPADPGYAQAEAAVEQAGKEATEAKEALDKATCATVKAGTDAKAKAEKADNILTKFQGTANAASQNQVSQGEQDNLSNVARLTMLMAMFIEIVGKNTEESLQNDLALFNALQEGRQAEMEKKSAEFQEETRKAEETNR
modifications: MTSL nitroxide spin label on the engineered cysteine at 207
B2: SipB^82-312 Lys-211 cysteine mutant, MTSL spin-labeled (domain or fragment)
chain: B1 chain with C126D, K130C
modifications: MTSL nitroxide spin label on the engineered cysteine at 211
B3: SipB^82-312 Asn-283 cysteine mutant, MTSL spin-labeled (domain or fragment)
chain: B1 chain with C126D, N202C
modifications: MTSL nitroxide spin label on the engineered cysteine at 283

What follows are binders tested against T1, SipD (residues 39-343, C244S) (assay: NMR paramagnetic relaxation enhancement).

Row | Binder | binding result
1 | B1 | binds
2 | B2 | binds
3 | B3 | binds
